# According to the domain aggregation screens of Martell et al. (2025):
# Assay: soluble fraction after stress (log2 fold change); higher = more stays soluble; pooled small domains, quantitative proteomics
# Details: stress: 75 degC
# 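Note: 20 min heating vs room temperature control held 20 min.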
row,Sequence,soluble fraction (log2)
1,HMGAKLTTAQGGTLKVLVKGKKTHTPTIELRDKDPDFPNAKVVQPDINKGNKQIAHGINGVL,0.686
2,HMGALAITPDFVGQTREEAERFLRDLDLSFDIGGKGDRILRQEPVAGQRMNLDQPMKLWVGSMNA,0.245
3,HMGANAVAAFTARVRTGPSTGYPVRISVPQGRQVRVISGPYGGWYRVSYQGLTGYTYGGLLRQG,-0.673
4,HMGAPAISYSKFLEQVDRKNVASVTIYKDGRIDGVMTSGSRFATESPSDPGLVGDLLKAGVEIRAKPP,0.177
5,HMGAPVIYELTAESAAGQRIDKYLSGQLADLSRSYLQKLLKDGGVEVNKKPVKSNYKLSEGDQIRLEVPEA,0.0457
6,HMGAQINSPISGTILKYLVKNGDKITKDQPLVNIESMKMENTIKSDKEGIVNNINFKIGDSVNTADTLLTL,0.0698
7,HMGAQKITIPDFSNQEATQVYAELKNMGLEYTESRMNHPSIASGYVIKTEPTKGSEVKAGTTVTVYVSLG,-0.112
8,HMGARHPLPYPFARAHGLLLEADGERSTLWASTNVSPAALSEVMRKYAVDVIEEEPPETLSQRIAAAYAA,-0.155
9,HMGASFITSSKDNAINIRESATTDSKVIETIKNGEILESTEKSGDWHKVTYYNSEIKKSFTGYIHNSQLK,0.426
10,HMGASLVIVPGAGFLRVSASSQTRLDVYSITGMRVRSVDFEPGTTEIELPAGFYIAGGRKFFV,-2.42
11,HMGAYITYEVKPGDTLWDIANKFPGVSADNIKTWNKVDELIKAGERLKINTQTITDYSPDKYPS,-0.242
12,HMGDADDLSRELLQQGLSLKEAVADFERRYLQQAMQRHSSIASVSEALDVHFSTLWRKLVKYNLV,-0.104
13,HMGDADDLTRIKGIGPKLSKTLNELGIYHFRQIAGWQSDEADWVDDYLSFKGRVMREQWIEQAQKFAS,-0.475
14,HMGDAIPVPDVSGFSEDQAMNNLRKVGLRPKATYVADDNTAKGYVTGTSPAKNIEVAPDSEVIVYVSSGP,0.697
15,HMGDAPLITVDKRTIKVNGAKAQIQVYDTTGRLVKNVSPAGKLTLIEMAKPGIFIVHTQSMSFKVVL,-0.351
16,HMGDAVYSKVKDLVNTYNALAKQTGKSDLVSISQSRTWMVNDTKAHEVQWNKIGITIEDDQTLTI,0.0968
17,HMGDLDLVTFGQRLRHLRRSRNMTLSELGERVGRAPSQLSLLENGKREPKLSLLTALAKALDVSVEEL,-1.05
18,HMGDLVKGKVVGYDPDNVIVDIGAKTNALVPNREAVVEAGDDIKETLKKGNEYEFLIIRDEDEEGEFL,0.24
19,HMGDPEYFKKQLGDFMDRFNITSEDIKNLSIAGAINRMMNNAEGEDKTVLSKLLETVNKSGVGNLPAKTI,-0.0106
20,HMGDPVRVDKFLHDMNVGTRSQIRKLIKEKAVFVNDVVAKSGRVKVDPVVDQVRLGEQVITYQ,-0.245
21,HMGDPYAILGLLPGASMEDVRHAWRRQAAENHPDRMLQRGAPPEFVEIAREKTAAINAAYARIREELSI,-0.433
22,HMGDTIGEQKAKEIALEHAGLKSSDVTFIRAVLEYDDRNWEYDVEFYDADTYTEYDYEIDAHTGKILSFDH,0.351
23,HMGDTPVDFSEFIRWVDTGVVDRVELTGNEIVGTSSSGERFSTYAPPQYEGLGNKLIERDIVVVATAA,-0.0455
24,HMGDTVSGTMLNLKPGVRVVHQIFGPGRVEETTGASLAEFRVTVRFEQKGLKTLLLQYAALQVINSEN,-1.73
25,HMGDVKLNAIYNFLKEFSALNGFPPSVREIGAKFGIKSTSTVHYYLEKLKQSGVIQQEENKKRAVVIN,-1.32
26,HMGDWEDFWEKEARRRKLSLDYQVVRSLSRWSREYDWGEEDVEQFLSQFPEGETVKMEDVELYFE,-1.18

row,Sequence,soluble fraction (log2)
1,HMGDYDHYVVKVEDTLLNWLVTNVTTMSRNKLKDILAGQGIKVNGKITTKYDYPLTPGMKIAISKTKR,-1.41
2,HMGEAIPVPDIRHKSQADAERLLQDQGLAMMVTDTGYVKTLPANYILEQIPVAGEKVKSGHVVYVIINSG,-0.103
3,HMGEGIRIDSTAVVQVGEKMYAYLGGDGFSKEFWTNLPASGELAVTLKFEPIPMDAESLDFYEMPA,0.307
4,HMGEILYSGVLKGGDGPEATKLALEKFLGEANTQVAGRIGVQPETQVIWLSREAVDSAASTLSQHKGNMYV,-0.247
5,HMGELDFYEEMRDDYLTGKIWNVGEIVEAKGMIGEIVRKGTNYISFVTDDNKVHKAWLHEIKL,-0.641
6,HMGELRAPLPGVIVSIPVKEGDEVKAGQAILIIEAMKMESEISSPIDAKVAKIVVKERVLVQEGDILIILE,-1.33
7,HMGEMTDFETLRDMYLTGQIWNIDDLIEANGVEGRIVRRGTNYIAFNDRDGKVHKAWLHEVTINE,-0.434
8,HMGENTIFSGVLGEGRLDSALAHALPQFSRARIQGLIAEDAVLIAGKATNDAASKKFAGQSFELSVPAPRP,0.119
9,HMGEPQAWNELIGNLLRQWEARQTGWTPARKREALDRVLGAADPAALYTRLQGLLKSWTQAMTDADA,-1.73
10,HMGEQETILKGDVNRDGVVDVNDVTHLQIHISNDDKNPLIDVTNKAWFDAADMYGDGKLDILDATALQIYI,0.196
11,HMGERVDGVVKFFNGQKGFGFIQREDGGPDAFVHISAVERAGMAGLDEGQRVSFELELDRRGKQAAINLTP,0.108
12,HMGESYGPVRRGETLWSIAEKVKPAGVSTQKELAAIYAANPQAFIRGDINLLKAGAELRLPSPEAL,-0.0179
13,HMGESYQIKDGELLVDIAQRVKPAGMTLRQTINALVAANPRAFRNGNPDLMYRGATLTIPDGDTLRRLAH,-0.0841
14,HMGEVQALIPGLVSKLFVVEGESVKIGQKLIILEAMKMENEIASPINGTIKKIYIKSGDKIDKGSIIMEIT,-3.41
15,HMGEVVSAPMPGTILSIKVSQGQTVKRGQVLLILEAMKMENEIVAPRDGVVVQISTTQGASVETGAPLVVL,-1.1
16,HMGEVYPSDIVEKMKQANLHILEGTLYPLLTRLKNAGLLNYRWVESVTGPPRKYFVMTEEGKAAF,0.13
17,HMGEWHQMLRSWGETELKNGRQNILDEAVPAFERAMIETALAHTSGRKKDAALLLGWGRNTLTRKLQEHSI,-0.169
18,HMGEYGVLWYLLTKKEAVSAGELKEKLHVVPGRMTDILTALEKKGLIIRQKNKTDKRVVDVVLTKEGEKEA,-0.731
19,HMGFAEFWLAYPKKVGKGEAERKWKTLKPDAGAVLSAVKRQSASEQWRKDGGRYIPNPATWLHQRRWE,0.0452
20,HMGFALLIAIERTGNTTYFVKLTLIKKGSDSDVLKDSFSVSQGDLVGTATYDSVIANRIREKTAAMWQKAT,-2.76
21,HMGFDTSMNKYTIDDLLKLLELGSNPSQAEIVNKITNFNTIFVDNSGVIQFLNNIQDKLLDNFK,-0.734
22,HMGFDTVVEKVLGLITSRPMTSRDIQMTLGRSREHTSRLMNRLYKEGLVDRNTSSKPFSYIITEKGREKI,-0.429
23,HMGFPAPFDGKAVAELRRRLGLTRRGLAEELSVSPSTVDKWEQGDVALRSPALTILKILWHQGLKALPP,-1.78
24,HMGFSDDEHNALADADLKKALEVTTNKSETQYNIAKLIYSYIISLGDKKPYGDWSYDKALSIIHDA,-0.0187
25,HMGGAVQIAEQIAARIKDGALRPGELLPPVRQLAAELEVNPNTVASAYARLRDAGLVATRGRAGTVVLEPP,-0.421
26,HMGGAYATVKLSSSSSQLNVRASASTASRVVARLSHGFRVEVLGVSGDWVKIRALGVEGYVARAYLALEGE,-3.07

row,Sequence,soluble fraction (log2)
1,HMGGEAEVLQSIDEGREVEVRSVAADGSAEVIYRGARWRARAAVGSLAAGRWTIGRVDGTELVLEK,-0.0609
2,HMGGEEKALLFGDVDIREAGEITQRLEQAEIPYELRGDGSSIFVPRSRVMEARMMISADGLL,-0.0934
3,HMGGEKLPAPVAGTLLRYSVAEGARVSEGQTVIILESMKMELEINTPKAGVIHFLAAVGAQVAEGDTLAEI,-3.46
4,HMGGGTPEERLATLAAIAERQEMLLERLGPNNPLVSLGQYSRTLSRMVQLAGFKDASQYFNELPLDFQMPE,-0.408
5,HMGGHLAYGFSRRFGLLIDEQQGEPVIIARPDYSPVHYAEARRIVGQPAALRVVDEQAFNQLLQSQQESGA,-0.512
6,HMGGLENNLKQARNRVGLTQSELARQAGISRQAYSSLESGAANPSTEVALRLAQALSERVESLFYLPE,-0.117
7,HMGGNVYAYRLTASVKSGEQIPANKIEKVKMLSSDLPTNYVPDTVNVTAYKSKLDLQAGTILSTSLLYEN,-0.591
8,HMGGPTARQMEVLSLIAQGLPNKRIADELGIAERTVKLHITALLDSLGARNRTHLLVVARERGM,-2.16
9,HMGGQKTREAIFDLIMTNSKITSAQIAEILGIHRSGVARHLKKLQEEGLIKREGPDNGGQWIVIK,-0.473
10,HMGGQYQVRPGETLNQIAARVRPSNMSLSETQKAIIQANPDIFKNGNPNLIFAGDILRIPTGNQI,0.466
11,HMGGTTLIAKQATVTGDIQFSSNLDIEGRVVGAISVEPGKEAMLHVVEGGSVEGEIRVPSAVINGKVTGDI,0.0791
12,HMGGVEWLTHPIGPRDSLQVLARAGLEARPTSDGDYEIYGQERWPQRDQARLMGWLRRFGQWVWQALYDK,-0.569
13,HMGHEALSSKLDEIQGVGKEKRSLLLDHFKTFERIKNASMEELEAVPSLGKNTAKAVFRFFHS,-0.0805
14,HMGHLTWTVTGIGHERRARTVAEQMSSVFGVLEARASSAGTVYLEFEREKIDEGGLEASLKRMGVTRVV,-2.02
15,HMGIAFDYDAGRFDQVPPNLVEKWQQAYPAVDVLSELRRMEAWASANPVNRKSNWQRFIVNWLTRAQDRAG,-0.859
16,HMGIAKYRQVTEWIQNRIATGELNRGDQIESENDISRTFGISRQTVRHALGLLEQQGILTRIQGRGTFVRD,-1.45
17,HMGIFDIIQEINRQGVTVLLIEQNANMALKIADVGYVLETGRISLTGSGRELLANEAVKKAYL,-1.29
18,HMGIKYTNQRVEILNFLKDNLSHPTVDDVYEGVKKKLTRISKATVYQNLKFLASKGLIQEVNIKGVSRFEP,-1.98
19,HMGIRQGKVTSTFVNVRSGASTANAKVGELHKGDVVSLIEKVANFWRIGPGQFVSADYIQVLAS,-2.07
20,HMGIRYQLADDVTDEQITAMTGKKAKIAAAIKAAGSAVSKMNVAGEMGYDKQNPINKDFMELVDAGIIVPS,-0.0507
21,HMGISEKVINIIETYTMIARKKYPSVKSLAEHFNVSERTVHRYLEIIKMIDVVDYDREKKGYFFPYGDR,-3.08
22,HMGISSESIKTFIREIVENEDPKAPLSDQTMVELLAERGIDISRRTVAKYRDEMNLPSSSKRKR,0.87
23,HMGKAMIDWEREQSILRILLRQKALTTEQAREVYQDGMREDLSALEMGVQRGYFTHEQLREATGGE,-0.278
24,HMGKASNEVYEVISSKIRTGEWAPGYKLPSEPTLAEEFGVSRATVREALQELISRGRIKREQGRGTYVLH,-0.0316
